Laboratory results published in article doi:10.1101/2025.09.11.675134, “Biodistribution-Driven Discovery Identifies a Glycosidase-Cleavable Linker to Reprogram Radiotheranostics” (bioRxiv, 2025).
Where two headings read alike, the source gives them in different places.

Assay: Ex vivo biodistribution of 111In-labeled variants in AR42J xenograft mice
Design: species or system athymic nude mice
Conditions: athymic nude, mouse, iv, 1 ug, total radioactivity, 1 h post-injection; for tissue uptake at 1 h: AR42J tumor-bearing mice; for tissue to tissue ratio at 1 h: AR42J xenografts, read-out: Tumor-to-kidney (T/K) ratio
Protocol: For studies involving three variants (DOTA -TATE, DOTA-MVK(ε)-TATE, and DOTA-β-Gal-TATE), AR42J cells (5 × 10^6 cells per mouse) were subcutaneously inoculated into the right shoulder of the mice. Tumors were allowed to grow for 3 weeks, reaching a volume of 100 –200 mm³ before being used in subsequent experiments. For biodistribution or PET imaging studies, mice bearing subcutaneous AR42J tumors were administered 1.4 – 1.8 MBq (1 μg) of 111In-labeled DOTA-TATE variants or 2.7 – 4.9 MBq (1 μg) of 86Y-labeled DOTA-TATE variants via tail vein injection. Biodistribution studies with 111In-labeled DOTA -TATE variants were performed 1 hour post -injection (n = 3 per cohort), while studies with 86Y-labeled DOTA-TATE variants were conducted at 1, 4, and 24 hours post -injection (n = 3 per cohort). Mice were euthanized by CO2 asphyxiation, and 10 tissues, including tumors, were collected. All samples were weighed and counted on a gamma counter (2480 Wizard 3, Perkin Elmer Inc., Waltham, MA, USA). Results are presented as percentage of injected activity per gram (%IA/g) and mean values ± standard deviations. […]

[1] = blood, i.v. 1 μg (1.4–1.8 MBq), ex vivo gamma counting, mean, n = 3, read-out: Blood uptake
[2] = femur, i.v. 1 μg, ex vivo, mean, n = 3, read-out: Femur uptake
[3] = heart, i.v. 1 μg, ex vivo, mean, n = 3, read-out: Heart uptake
[4] = kidney, i.v. 1 μg, ex vivo, mean (± SD), n = 3, read-out: Kidney uptake
[5] = liver, i.v. 1 μg, ex vivo, mean, n = 3, read-out: Liver uptake
[6] = lung, i.v. 1 μg, ex vivo, mean, n = 3, read-out: Lung uptake
[7] = muscle, i.v. 1 μg, ex vivo, mean, n = 3, read-out: Muscle uptake
[8] = spleen, i.v. 1 μg, ex vivo, mean, n = 3, read-out: Spleen uptake
[9] = tumor (AR42J xenograft), i.v. 1 μg, ex vivo, mean (± SD), n = 3, read-out: Tumor uptake

SMILES | tissue uptake at 1 h [1] [%ID/g] | tissue uptake at 1 h [2] [%ID/g] | tissue uptake at 1 h [3] [%ID/g] | tissue uptake at 1 h [4] [%ID/g] | tissue uptake at 1 h [5] [%ID/g] | tissue uptake at 1 h [6] [%ID/g] | tissue uptake at 1 h [7] [%ID/g] | tissue uptake at 1 h [8] [%ID/g] | tissue uptake at 1 h [9] [%ID/g] | also measured
C[C@@H](O)[C@H](NC(=O)[C@@H]1CSSC[C@H](NC(=O)[C@@H](Cc2ccccc2)NC(=O)CCCC(=O)Nc2cc(COC(=O)N(C)CCNC(=O)CN3CCN(CC(=O)O)CCN(CC(=O)O)CCN(CC(=O)O)CC3)ccc2O[C@@H]2O[C@H](CO)[C@H](O)[C@H](O)[C@H]2O)C(=O)N[C@@H](Cc2ccc(O)cc2)C(=O)N[C@H](Cc2c[nH]c3ccccc23)C(=O)N[C@@H](CCCCN)C(=O)N[C@@H]([C@@H](C)O)C(=O)N1)C(=O)O [^111In-DOTA-β-Gal-TATE, metal not drawn] |  |  |  |  |  |  |  |  |  | tissue uptake at 1 h (in vivo, i.v. 1 μg (1.4–1.8 MBq), ex vivo gamma counting, mean, n = 3, read-out: Blood uptake): 0.56 %ID/g; tissue uptake at 1 h (in vivo, i.v. 1 μg, ex vivo, mean (± SD), n = 3, read-out: Kidney uptake): 5.19 ± 0.18 %ID/g; tissue uptake at 1 h (in vivo, i.v. 1 μg, ex vivo, mean (± SD), n = 3, read-out: Tumor uptake): 10.8 ± 1.11 %ID/g; tissue uptake at 1 h (in vivo, i.v. 1 μg, ex vivo, mean, n = 3, read-out: Femur uptake): 0.34 %ID/g; tissue uptake at 1 h (in vivo, i.v. 1 μg, ex vivo, mean, n = 3, read-out: Heart uptake): 0.29 %ID/g; tissue uptake at 1 h (in vivo, i.v. 1 μg, ex vivo, mean, n = 3, read-out: Intestine uptake): 0.79 %ID/g; tissue uptake at 1 h (in vivo, i.v. 1 μg, ex vivo, mean, n = 3, read-out: Liver uptake): 0.45 %ID/g; tissue uptake at 1 h (in vivo, i.v. 1 μg, ex vivo, mean, n = 3, read-out: Lung uptake): 0.92 %ID/g; tissue uptake at 1 h (in vivo, i.v. 1 μg, ex vivo, mean, n = 3, read-out: Muscle uptake): 0.17 %ID/g; tissue uptake at 1 h (in vivo, i.v. 1 μg, ex vivo, mean, n = 3, read-out: Spleen uptake): 0.21 %ID/g; tissue to tissue ratio at 1 h (ex vivo): 2.08
C[C@@H](O)[C@H](NC(=O)[C@@H]1CSSC[C@H](NC(=O)[C@@H](Cc2ccccc2)NC(=O)CN2CCN(CC(=O)O)CCN(CC(=O)O)CCN(CC(=O)O)CC2)C(=O)N[C@@H](Cc2ccc(O)cc2)C(=O)N[C@H](Cc2c[nH]c3ccccc23)C(=O)N[C@@H](CCCCN)C(=O)N[C@@H]([C@@H](C)O)C(=O)N1)C(=O)O [^111In-DOTA-TATE, metal not drawn, reference compound] | 0.27 | 0.12 | 0.1 | 7.33 ± 0.04 | 0.23 | 0.49 | 0.06 | 0.1 | 5.67 ± 0.92 | 
CSCC[C@H](NC(=O)CN1CCN(CC(=O)O)CCN(CC(=O)O)CCN(CC(=O)O)CC1)C(=O)N[C@H](C(=O)N[C@@H](CCCCNC(=O)CCCC(=O)N[C@H](Cc1ccccc1)C(=O)N[C@H]1CSSC[C@@H](C(=O)N[C@H](C(=O)O)[C@@H](C)O)NC(=O)[C@H]([C@@H](C)O)NC(=O)[C@H](CCCCN)NC(=O)[C@@H](Cc2c[nH]c3ccccc23)NC(=O)[C@H](Cc2ccc(O)cc2)NC1=O)C(=O)O)C(C)C [^111In-DOTA-MVK(ε)-TATE, metal not drawn] | 0.73 | 0.55 | 0.29 | 5.56 ± 0.29 | 0.31 | 0.73 | 0.27 | 0.16 | 5.44 ± 0.19 | tissue uptake at 1 h (intestine, i.v. 1 μg, ex vivo, mean, n = 3, read-out: Intestine uptake): 0.81 %ID/g; tissue to tissue ratio at 1 h (tumor and kidney, ex vivo): 0.98
